The values below come from PMC5687611.

Experiment [1] concerns the target L3B3-hPD-L1 phage clone (displayed on M13 phage) (human) (UniProt Q9NZQ7). Briefly: ELISA; inhibition phage ELISA: phage displaying hPD-L1 variants incubated with 1.6 µM non-biotinylated soluble hPD-1 for 1 h before adding to plates with captured biotinylated hPD-1. Background: An ELISA detects its analyte on a solid surface through an enzyme-linked reagent.
Experiment [2] addresses L3C7-hPD-L1 phage clone (displayed on M13 phage) (human) (UniProt Q9NZQ7). The description is as above.

For “soluble non-biotinylated hPD-1 (residues 33-150, C93S) (from UniProt Q15116 33-150) (domain or fragment)”, the inhibition rate at 1.6 µM soluble hPD-1 in experiment [1] amounted to 86.7%; in experiment [2], 82.6%.
